Data: the nanobody polyreactivity screen of Harvey et al. (2022)

Assay: yeast display, Sf9 membrane polyspecificity reagent, FACS + sequencing; frameworks hold sequencing errors
Summary of the method: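 After 36–48 hours of galactose induction, yeast (Saccharomyces cerevisiae BJ5465) displaying a synthetic nanobody library were stained at 4 °C for 1 hour with 10% biotinylated, detergent-solubilized Sf9 membrane reagent. Streptavidin microbeads enriched the stained cells before FACS sorting into low and high (top ~1%) gates on anti-HA and streptavidin fluorescence. Each clone's polyreactivity label reflects its gate of origin.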

Sequence | polyreactivity (PSR sort gate)
QVQLVESGGGLVQAGGSLRLSCAASGSIFRYNAMGWYRQAPGKERELVAAISASGGRTHYADSVKGRFTISRDNAKNTVYLQMNSLKPEDTAVYYCAAATYRGTSLYGYWGQGTQVTVSS | high polyreactivity
QVQLVESGGGLVQAGGSLRLSCAASGSIFRYNAMGWYRQAPGKERELVAAITSGDSTYYADSVKGRFTISRDNAKNTVYLQMNSLKPEDTAVYYCAVTTWANTQWEDYWGHGTQVTVSS | low polyreactivity
QVQLVESGGGLVQAGGSLRLSCAASGSIFRYNTMGWYRQAPGKERELVAAIRGDGSTNYADSVKGRFTISRANAKNTVYLQMNSLKPEDTAVYYCAVTLRGYRYAYDYWGQGTQVTVSS | low polyreactivity
QVQLVESGGGLVQAGGSLRLSCAASGSIFRYNTMGWYRQAPGKERELVASIRIGGSTYYADSVKGRFTISRDNAKNTVYLQMNSLKPEDTAVYYCAVRPYRSAGGSVTRGAYYYWGQGTQVTVSS | high polyreactivity
QVQLVESGGGLVQAGGSLRLSCAASGSIFRYYAMGWYIQAPGKERELVAGITGSTGRTYYADSVKGRFTISRDNAKNTVYLQMNSLKPEDTAVYYCAARSRYYEYDYWGQGTQVTVSS | low polyreactivity
QVQLVESGGGLVQAGGSLRLSCAASGSIFRYYAMGWYRQAPGKDRELVAVITRGGSTYYADSVKGRFTISRDNAKNTVYLQMNSLKPEDTAVYYCAADSWPAGLDRGYWGQGTQVTVSS | low polyreactivity
QVQLVESGGGLVQAGGSLRLSCAASGSIFRYYAMGWYRQAPGKEREFVAAINTNDAGTYYADSVKGRFTISRDYAKNTVYLQMNSLKPEDTAVYYCAADTGYRFWYDYWGQGTQVTVSS | high polyreactivity
QVQLVESGGGLVQAGGSLRLSCAASGSIFRYYAMGWYRQAPGKERELVAAISGDSGRTYYADSVKGRFTISRDNAKNTVYFQMNSLKPEDTAVYYCNARVAYRYRTGYDYWGQGTQVTVSS | high polyreactivity
QVQLVESGGGLVQAGGSLRLSCAASGSIFRYYAMGWYRQAPGKERELVAAITASGGRTHYADSVKGRFTISRDNAKNTVYLQLNSLKLEDTAVYYCAADLYYAWYWKQHYDYWGQGTQVTVSS | high polyreactivity
QVQLVESGGGLVQAGGSLRLSCAASGSIFRYYAMGWYRQAPGKERELVADITSSGGSTYYADSVKGRFTISRDNAKNTVYLQMNSLKPEDTAVYYCASLYWFYVYPFTEYDYWGQGTQVTVSS | low polyreactivity
QVQLVESGGGLVQAGGSLRLSCAASGSIFRYYAMGWYRQAPGKERELVARISSGGSTYYADSVKGRFTISRDNAKNTVYLQMNSLKPEDTAVYYCNAGAPARYWWEGDYWGQGTQVTVSS | high polyreactivity
QVQLVESGGGLVQAGGSLRLSCAASGSIFRYYAMGWYRQAPGKERELVARISWRAGSTYADSVKGRFTISRDNAKNTVYLQMNSLKPEDTAVYYCNADAHKYSWVGTSEYEYWGQGTQVTVSS | high polyreactivity
QVQLVESGGGLVQAGGSLRLSCAASGSIFRYYAMGWYRQAPGKERELVAVISSGGTRTNYADSVKGRFTISRDTAKNTVYLQMNSLKPEDTAVYYCAAGYLSLYGGGYWGQGTQVTVSS | high polyreactivity
QVQLVESGGGLVQAGGSLRLSCAASGSIFRYYAMGWYRQEPGKERELVAAISWDGGTTYYADSVKGRFTISRDNAKNTVYLQMNSLKPEDTGVYYCNVEFPLSSYGYDYWGQGTQVTVSS | low polyreactivity
QVQLVESGGGLVQAGGSLRLSCAASGSIFRYYVMGWYRQAPGKERELVATISRSGGRTYYADSVKGRFTISRDYAKNTVYLQMNSLKPEDTAVYYCARTYGGYPTTYDYWGQGTQVTVSS | high polyreactivity
QVQLVESGGGLVQAGGSLRLSCAASGSIFSANAMGWYRQAPGKERELVASITGDGSTNYADSVKGRFTISRDNAKNTVYLQMNSLKPEDTAVYYCAADIGSWYDYWGQGTQVTVSS | low polyreactivity
QVQLVESGGGLVQAGGSLRLSCAASGSIFSAYAMGWYRQAPGKERELVAAISDSGDSTYYADSVKGRFTISRDNAKNTVYLQMNSLKPEDTAVYYCAAESPKWGQGTQVTVSS | low polyreactivity
QVQLVESGGGLVQAGGSLRLSCAASGSIFSAYAMGWYRQAPGKERELVAGISKRGGSTYYADSVKGRFTISRDNAKNTVYLQMNSLKPEDTAVYYCNAARYTVVTKLFDYWGQGTQVTVSS | high polyreactivity
QVQLVESGGGLVQAGGSLRLSCAASGSIFSAYGMGWYRQAPGKERELVAAITRSGGSTYYADSVKGRFTISRDNAKNTVYLQMNSLKPEDTAVYYCAAKSIIRPYAPRRDDMDYWGQGTQVTVSS | low polyreactivity
QVQLVESGGGLVQAGGSLRLSCAASGSIFSDNAMGWYRPAPGKESELVAAITYSGGRTSYADSVKGRFTISRDNAKNTVYLQMNSLKPEDTAVYYCNAEYYYWNREGDYWGQGTQVTVSS | low polyreactivity
QVQLVESGGGLVQAGGSLRLSCAASGSIFSDNAMGWYRQAPGKERDLVAAISWIGDSTDYADSVKGRFTISRDNAKNTVYLQMNSLKPEDTAVYYCAADAKVVSPRYRANDIGMFYWGQGTQVTVSS | low polyreactivity

Sequence | polyreactivity (PSR sort gate)
QVQLVESGGGLVQAGGSLRLSCAASGSIFSDNAMGWYRQAPGKERELVAAISWIGDSTDYADSVKGRFTISRDNAKNTVYLQMNSLKPEDTAVYYCAGDAKVVSPRYRANDIGMYYWGQGTQVTVSS | low polyreactivity
QVQLVESGGGLVQAGGSLRLSCAASGSIFSEYAMGWYRQAPGKERELVAAINDGGGSTYYADSVKGRFTISRDNAKNTVYLQMNSLKPEDTAVYYCAAETVRWWWLYDYWGQGTQVTVSS | high polyreactivity
QVQLVESGGGLVQAGGSLRLSCAASGSIFSFNAMGRSRQAPGKERELVASITSGGSTNYADSVKGRFTISRDNAKNTVYLQMNSLKPEDTEVYYCNARFPYLSRWLVRGLASYDYWGQGTQVTVSS | low polyreactivity
QVQLVESGGGLVQAGGSLRLSCAASGSIFSFNVMGWYRQAPGKEREMVATITGGGSTNYADSVKGRFTISRDNAKNTVYLQMNSLKPEDTAVYYCNKRNRWTPFYTYDYWGQGTQVTVSS | low polyreactivity
QVQLVESGGGLVQAGGSLRLSCAASGSIFSFYAMGSYRQAPGKERELVAAISWSGGSTYYADSVKGRFTISRDNAKNTVYLLMNSLKPEDTAVYYCAREKAVSYYGYDHWGQGTQVTVSS | low polyreactivity
QVQLVESGGGLVQAGGSLRLSCAASGSIFSFYAMGWYRQAPGKEREFVAAITISDDSTYYADSVKGRFTISRDNAKNTVYLQMNSLKPEDTAVYYCNARYLSWYFKYLYDYWGQGTQVTVSS | low polyreactivity
QVQLVESGGGLVQAGGSLRLSCAASGSIFSGNAMGWYRQAPGKKGVGCRYYSCWFYDYADSVKGRFTISRDNAKNTVYLQMNSLKPEDTAVYYCAKSNYVRSEFNYWGQGTQVTVSS | low polyreactivity
QVQLVESGGGLVQAGGSLRLSCAASGSIFSGNTMGWYRQAPGKERELVAAISGRGSNTYYADSVKGRFTISRDNAKNTVYLQMNSLKPEDTAVYYCAAPWVVRRTAYDYWGQGTQVTVSS | high polyreactivity
QVQLVESGGGLVQAGGSLRLSCAASGSIFSGYAMGWYRQAPGKERELVAAISGSGGSTFYADSVKGRFTISRDNAKNTVYLQMNSLKPEDTAVYYCAARRIAPYGRYDYWGQGTQVTVSS | low polyreactivity
QVQLVESGGGLVQAGGSLRLSCAASGSIFSGYAMGWYRQAPGKERELVAAITWRAASTYYADSVKGRFTISRDNAKNTVYLQMNSLKPEDTAVYYCAKEGGPKPAFYYWGQGTQVTVSS | low polyreactivity
QVQLVESGGGLVQAGGSLRLSCAASGSIFSGYAMGWYRQAPGKESELVAAISGSGGSTFYADSVKGRFTISRDNAKNTVYLQMISLKPEDTAVYYCAARRIAPFGRYDYWGQGTQVTVSS | low polyreactivity
QVQLVESGGGLVQAGGSLRLSCAASGSIFSHKVMGWYRQAPGKERELVAAITYRGGSTYYADSVKGRFTISRDNAKNTVYLQMNSRKPEDTAVYYCAALNEVSTYHGFDYWGQGTQVTVSS | low polyreactivity
QVQLVESGGGLVQAGGSLRLSCAASGSIFSIYAMGWYRQAPGKERELVAAISWNGGSTYYADSVKGRFTISRDNAKNTVYLQMNSLKPEDTAVYYCAVDEGPTKVRFGYWGQGTQVTVSS | high polyreactivity
QVQLVESGGGLVQAGGSLRLSCAASGSIFSLYAMGWYRPAPGKERELVAAISDGTGTNYADSVKGRFTISRDNAKNTVYLQMNSLKPVDTAVYYCATETYWYLPYYGDVEGNYWGQGTQVTVSS | low polyreactivity
QVQLVESGGGLVQAGGSLRLSCAASGSIFSLYAMGWYRPAPGKERELVAGISRSGGSTYYADSVKGRFTISRDNAKNTVYLQMNSLKPEDTAVYYCAARVKVRDFKGYYWGQGTQVTVSS | high polyreactivity
QVQLVESGGGLVQAGGSLRLSCAASGSIFSNAMGWYRQAPGKERELVAAITGRGGRTYYADSVKGRFTISRDNAKNTVFLQMNSLKPEDTAVDYCARDSPWSSRYRYRAFDYWGQGTQVTVSS | high polyreactivity
QVQLVESGGGLVQAGGSLRLSCAASGSIFSNYAMGWYRQAPGKERELVAAITLSSGGTYYADSVKGRFTISRDNAKNTVYFQMNSLKPEDTAVYYCAAQYKYFIHRYYYWGQGTQVTVSS | high polyreactivity
QVQLVESGGGLVQAGGSLRLSCAASGSIFSNYAMGWYRQAPGKERELVAAITLSSGGTYYADSVKGRFTISRDNAKNTVYLQMNSLKPEDTAVYYCAAQYKYFKHRYYYWGQGTQVTVSS | high polyreactivity
QVQLVESGGGLVQAGGSLRLSCAASGSIFSQYAMGWYRQAPGKERELVAAISSSGDSTNYADSVKGRFTISRDNAKNTVYLQMNSLKPEDTAVYYCNADTYWYRDSRYDYWGQGTQVTVSS | low polyreactivity
QVQLVESGGGLVQAGGSLRLSCAASGSIFSQYLMVWYRQAPGKERELVAAISWSGGHTYYADSVKGRFTISRDNAKNTVYLQMNSLKPEDTAVYYCATVPRKTPGNAELDYWGHGTQVTVSS | high polyreactivity
